In US12747297 (dated 2026):
Numbering of substitutions follows the chain as printed. Blank lines part the entries; values can stand above or below the binder they belong to.

Experiments:
sIL-4Rα [1] = target: sIL-4Rα (human)
sIL-4Rα [2] = target: sIL-4Rα (human); assay: BLI

Sequence of sIL-4Rα (human) (chain, as listed by the source): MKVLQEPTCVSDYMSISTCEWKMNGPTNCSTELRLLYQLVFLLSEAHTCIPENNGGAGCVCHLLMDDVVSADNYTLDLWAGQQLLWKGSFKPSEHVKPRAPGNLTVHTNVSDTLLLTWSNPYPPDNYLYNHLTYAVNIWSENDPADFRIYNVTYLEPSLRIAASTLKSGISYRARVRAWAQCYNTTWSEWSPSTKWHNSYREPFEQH

B1: 5R65.39 (antibody, V domains shown)
VH: QVQLVQSGAEVKKPGSSVKVSCKASGYTFTSYWINWVRQAPGQGLEWIGHIYPNKNENYYNHKFKDKATLTVDKSTNTAYMELSSLRSEDTAVYYCTREFYGRSRYSAMDYWGQGTTLTVSS
VL: DIQMTQSPSTLSASVGDRVTITCKASQNVGTAVAWYQQKPGKAPKLLIYWASTRHTGVPDRFSGSGSGTDFTLTISSLQPDDFATYYCQQFGRYPYTFGSGTKVEVK
binding result (sIL-4Rα [1]): no binding

B2: 5R65.7 (antibody, V domains shown)
VH: B1 VH with S104Q, R105Y, S107Q
VL: B1 VL
binding result (sIL-4Rα [1]): no binding

B7: 4R.N8 (antibody, V domains shown)
VH: EVQLLESGGGLVQPGGSLRLSCAASGFTFSRHAMAWVRQAPGKGLEWVSAITMSGRSIYYADSVKGRFTISRDNSKNTLYLQMNSLRAEDTAVYYCARVHRAFDYWGQGTLVTVSS
VL: QSVLTQPPSASGTPGQRVTISCSGSPLFPDSGSFNWYQQLPGTAPKLLIYADSHRPSGVPDRFSGSKSGTSASLAISGLRSEDEADYYCGTWDYSLSRYVLGGGTKLTVLG
Kd (sIL-4Rα [2]): 0.0802 nM

B8: 4R.N2 (antibody, V domains shown)
VH: B7 VH with M53A, A61G
VL: B7 VL with R98A
Kd (sIL-4Rα [2]): 0.108 nM

Now from value to binder:

binding result (sIL-4Rα [1]): no binding
B3: 5R65.18 (antibody, V domains shown)
VH: B1 VH with F100Y, S104T, R105Y
VL: B1 VL

binding result (sIL-4Rα [1]): no binding
B4: 5R65.14 (antibody, V domains shown)
VH: B1 VH with F100H, S104P, R105Y, S107N
VL: B1 VL

binding result (sIL-4Rα [1]): no binding
B5: 5R65.10 (antibody, V domains shown)
VH: B1 VH with F100Y, R105Y, S107A
VL: B1 VL

binding result (sIL-4Rα [1]): no binding
B6: 5R65 (antibody, V domains shown)
VH: B1 VH with E99D, F100Y, R105Y, S107Y
VL: B1 VL
